Data from US20070081975A1.

Molecular target: recombinant human IL-18 (human) (UniProt Q14116)
Test: cell-based or functional assay

Chain of recombinant human IL-18 (human) (Q14116 37-193 limits assumed): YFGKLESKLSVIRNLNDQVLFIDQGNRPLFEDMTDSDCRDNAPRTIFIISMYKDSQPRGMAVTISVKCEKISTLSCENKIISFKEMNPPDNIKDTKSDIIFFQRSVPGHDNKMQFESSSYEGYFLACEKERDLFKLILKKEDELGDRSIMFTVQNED

His6-tagged IL-18BPa transiently expressed in COS7 cells (IL-18BP-His6) (from UniProt O95998 31-194)
IFN-γ (ng/ml); bioassay with human IL-18 (20 ng/ml), LPS (2 µg/ml) and murine splenocytes (control 7.5): 0 ng/mL

PNGase-treated IL-18BP-His6 (deglycosylated IL-18BPa-His6) (from UniProt O95998 31-194)
IFN-γ (ng/ml); bioassay with human IL-18 (20 ng/ml), LPS (2 µg/ml) and murine splenocytes (control 7.5): 0 ng/mL
